Results on two substances are retold here after publication PMC2816219.

The target in this experiment is F-actin (non-muscle human actin, pre-polymerized in vitro) (human) (UniProt P60709). As to the kind of experiment: co-sedimentation; constant protein (16 nM GST-ARN127(25), 150 nM GST-Htt exon 1(25)) with increasing F-actin (0-8 µM or 0-16 µM); gels quantified for percent bound; approximate Kd.

The substance GST-Htt exon 1(25) (domain or fragment) displayed a dissociation constant Kd of 2 µM. “GST-ARN127(25) (from UniProt P10275 1-127) (domain or fragment)”: the Kd was 1 µM.

A word on the Kd: it is the equilibrium constant for the complex coming apart. A low value points to tighter binding.
